From the nanobody polyreactivity screen of Harvey et al. (2022)

Assay: yeast display, Sf9 membrane polyspecificity reagent, FACS + sequencing; frameworks hold sequencing errors
Method in brief: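 After 36–48 hours of galactose induction, yeast (Saccharomyces cerevisiae BJ5465) displaying a synthetic nanobody library were stained at 4 °C for 1 hour with 10% biotinylated, detergent-solubilized Sf9 membrane reagent. Streptavidin microbeads enriched the stained cells before FACS sorting into low and high (top ~1%) gates on anti-HA and streptavidin fluorescence. Each clone's polyreactivity label reflects its gate of origin.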

Sequence | polyreactivity (PSR sort gate)
QVHLVDTGGGLVQARGRLRLSCPASGYNFSYYAMASYRQAPGKERELVATIDWGGGSTYYADSVQGRFTISRDIAKNTVYLQLNSLKPEDTGVYYCAKDYYINNYGYRYVSWGKGTQVTVSS | low polyreactivity
QVHLVESAAGLVQAGGSLRLSCDPSGFTFYAYPMGWYSQAPGKEREFVAAISSRGGRTYYADSVKGRFTISRDNAKNTVYLQMNSLKPEDTAVYYCNVPYYSFRALSSYYWGQGTQVTVSS | high polyreactivity
QVHLVESAGCLVQAAGSLRLSCSASGFTFGYNTMGWFRQPPGKERELVAAISYGGGRTYYADSVKWRFTISRDNAKNTVYLQMNSLKPEDSAVYYCAAAPIPSLTYDYWGQGTQVTVSS | low polyreactivity
QVHLVESAGGLVHAGGSHRLSCAASGFIFYRNAMGCYRQEPGKERELVAAISYRGARTYYADSVKGRFTISRDYEKNTVYLQMNSLKPEDTAVYYCAAQGVSSPGVDSWGQGTQVTVSS | high polyreactivity
QVHLVESAGGLVQAGGSLSLSCHASGSTFVWNAMGWYRQAPGKEMELVATMTLSTGSTYYADSVKGRFTISRDNAKNTVYLQMNSLKPEDTAVYYCNTEIFVDIIYDYGLWGQGTQVTVSS | low polyreactivity
QVHLVESGAGLVQAGGSLRLSCASSGFTFKAYAMGWYRQAPGKERELVAAITKSGGRTFYADSVKGRFTISRDNAKNTVYLQMNSLKPEDTAVYYCAASYTVYYWGQGTKVTVSS | high polyreactivity
QVHLVESGGALVQAGGSLRLSCAASGSTFWFYAMLWYRQAPGKERELVAAITRSAGSTYYADSVKGRFTISRDNAKYTVFLQMNSLKPEDTAVYYCAAQRESLYGGFDSWGQGTQVTVSS | low polyreactivity
QVHLVESGGALVQAGGSLRLSCAASVIVFKRYAMGWYRQAPGKEREFVATISYTGGRTYYADSVKGRFTISRDNAKNTVYFQMNSLKPEDTAGYYCATLYRSSKHQPLDYWGQGTQVTVSS | high polyreactivity
QVHLVESGGALVQAGGSLRLSCASSGRTFGWNVMGWYRQAPGKERELVAAISGSGGSTYYADSLKGRFTISRDNAKNTVYLQMNSLKPEDTAVYYCAALYGPGREYDYWGQGTQVTVSS | low polyreactivity
QVHLVESGGCLLQAGGSLRLSCAASGSIFIINAMGWYRQAPGKERELVAAINNGVNTYYADSVKVRFTISRDNAKNTVYLQKNSLKPEDTAVYYCAADPYFYYYGYDYWGQGTQVTVSS | low polyreactivity
QVHLVESGGCLVQAGGSLRLSCAASGRTFDFYAMGWYRQAPGKERELVATITSGTSTNYADSVKGRFTISRDNAKNTVYLQMYRLKPEDTAVYYCNAGGVYPRCTFLEQGYEMDYWGQGTQVTVSS | low polyreactivity
QVHLVESGGCLVQARGSLRLSCAASGRTIQLYAMGWYRHPHGKVMELVAAITWSSGRTYYADSVKGRFTISRDNANNTVYLQMNRLKQEDTAVYYCNAPRGGRNTVYYWGQGTQVTVSS | high polyreactivity
QVHLVESGGGFVQAGGSLRVSCAASGRSCGYNAMGWYRQAPGKERELVAAITSGGSTYYADSVKGRFTISRDNAKHTVYLQMNSLKPEDTAVYYCAARFSYWKTKRAYDWGQGTQVTVSS | high polyreactivity
QVHLVESGGGIVQAGGRLRLSCAASGLIFYHYAMGWYRQAPGKEREFVAAITVSGGSTYYADSVKGRFTITRDNAKNTVYLQMNSLKPEDSAVYYCNARSVVWWASGDYWGQGTQVTVSS | low polyreactivity
QVHLVESGGGIVQAGVSLRLSCAASGRIFYGYTMGWYRQAPGKERELVASIDYSTGRTYYADSVKGRFTISRDNAKYTVYLQMNSLKPEDTAVYYCNADPNYSFLRYDYWGQGTQVTVSS | high polyreactivity
QVHLVESGGGKVQAGGSLRLSCAASGGTFYQYAMGWYRQAPGKESELVAAITRSGGRTYYADSVKGRFTISRDNAKNTVYFQMNSLKPEDTAVYYCAAEDVGPPDFYYWGQGTQVNVSS | high polyreactivity
QVHLVESGGGLDQAGGSLRLRCAASGRIFRHYAMGWYRQAPGTERELVAAYRWSCGSTYYADSEKGRFTISRDNAKNTVYLQMNSLKPEDNAVYYCATRDAVGHRPSGPYQLYDYWGQGTQVTVSS | low polyreactivity
QVHLVESGGGLDQAGGSLRLSCAASGSIYGPYAMGWYRQAPGKERELVAAIRSGGSTNYADSVKGRFTITRDNAKNTVYLLMTSLKPEDTAVYYCAAEYWGYPYDYWGQGTQVTVSS | low polyreactivity
QVHLVESGGGLFQAGGSLRLSCAASGSTFTDYDMGWYRQAPGKDRELVASITSGGSTNYADSVKGRFTISRDNAKNTVYLQMNSLKPEDTAVYYGAAADADRKYDYWGQGTQVTVSS | low polyreactivity
QVHLVESGGGLFQAGGSLRLSFAATGLTFSPYARGWYRHGPGKERELVASITNGGRTYYADSVKGRFTISRDNAKITVYLQMNSLKPEDTAVYYCAAYPRGARRLDYWGQGTQVTVSS | high polyreactivity
QVHLVESGGGLFQEGGSLRLSCAPSGSNFATYTMGWYRQAPGKERELVAAIRRSGGSTYYADSVKGRFTLSRDNAKNTVYLLMNSLKPEDTEVYYCAAKHYYYSPYVRYDPPPGYYWGQGTQVTVSS | high polyreactivity
QVHLVESGGGLVHAGGSLRLSCAASGFTLAWNAMGWYRQAPGKETELVATISRYGSSTSYADSVKGRFTISRDNSKNTVYLQMNSLKPEDTAVYYCAADRYTFRMDYWGQGTQVTVSS | high polyreactivity

Sequence | polyreactivity (PSR sort gate)
QVHLVESGGGLVKAGGSLRLSCAASGRTFPYNAMGWYRQAPGKERELVAAISSGGSTNYADSVKGRFTISRDNAKNTVYLQMNSLKPEDTAVYYCATKYQRRPYRYYYWGQGTQVTVSS | low polyreactivity
QVHLVESGGGLVLAGGSLRLSCAASGIIFTYAMGWYRHAPGNERELVAAIDWRGGRTYYADSLKGRFTISRDNAKNTFYLQMNSLKPEDTAVYYCAPRLPGGTYYWGQGTQVTESS | high polyreactivity
QVHLVESGGGLVLAGGSLRLSCAASGSTFIWNAMGWYRQAPGKERELVAAIRRGSSTNYADSVKGRFTISRDNAKNTVYLQMNSLYPEDTAVYYCAKKPVTTDVSSETFFLEMDYWGQGTQVTVSS | low polyreactivity
QVHLVESGGGLVQAAGSLRLSCAASGRTFPYNAKGWYRQAPGKERELVAAISSGGSTNYADSVKGRFTISRDNAKNTVYLQMNSLKPEDTAVYYCATKYQRRPYRYYYWGQGTQVTVSS | low polyreactivity
QVHLVESGGGLVQAGCSLRLICAASRYIFGYYAMGWYRQAPGKERELVAAISTDGSTDYADSVKVRFTISRYNANNTVDLQMNRLKPEDSALYYCAKELFIVTNGVYIYDSWGEGTQVTVSS | low polyreactivity
QVHLVESGGGLVQAGGILLLSCAASGYDMGWYRQAPGKERELVAAISRGGSTSYADSVKGRFTISRDNAKNTVYLQMNSLKPEDTAVYYCAARYGSYRVGYDYWGQGTQVTVSS | low polyreactivity
QVHLVESGGGLVQAGGILRLSCAASGFIYTKYTMGSYRQAPGKEREMVAAITGRGTSTYADSVKGRFTISRDNAKNSVYLQMNRLKPEDTAVYYCASVGWFADFMFSDINGYYWGQGTEVTVSS | low polyreactivity
QVHLVESGGGLVQAGGILRLSCAASGRTFRRYAMGWYRQAPGKERELVAVISGGGTYYADSVKGRFTISRDNAKNTVYLQMNSLKPEDTAVYYCNARSYQSARVRGGYWGQGTQVTVSS | high polyreactivity
QVHLVESGGGLVQAGGILRLSSPASGSISGWYAMGWSRQEPGKERELVSDMTRGGRTYYADSVKGRFTISRDNAKNTVYLQMNSLKPEDTAVYYCASPSPSYYYRSGWGSYYSWGLGTQVTVSS | high polyreactivity
QVHLVESGGGLVQAGGILRLSWASSGFIFPRYAMGSYRQAPGKERELVAGITSRGTGTYYADSVKGRFTISRDNAKNTVYLQMNSLKQEDTAVYYCARLSTKPLPYDDWGQGTQVTVSS | high polyreactivity
QVHLVESGGGLVQAGGILRVSCAASGRIFRTYVMGWYRQAPGKERELVAAITQRGGTTYYADSVKRRFTISRDNAKNTVYLQMNSLKPEDTAVYYCATRYRYYTERDYWGLGTQVTVSS | high polyreactivity
QVHLVESGGGLVQAGGNLRLICAASGSIFSDYTIGWYRQAPGKERELVAVITLSSGSTYFADSVKGRFTISRDNAKNTDYLQMNSLKPEDTAVYYCAADGWYYFGSGVFEYDYWRQGTQVTVSS | low polyreactivity
QVHLVESGGGLVQAGGRLRLSCAASGSIFGYNAMGWYRQAPGKERELVAAISSTGGSTYYADSVKGRFTISRDNAKNTVYLQMNSLYPEDTAVYYCAKRGQSYFKGYDYWGQGTQVTVSS | low polyreactivity
QVHLVESGGGLVQAGGSHRITCAASGITFVGNARGWYRQAPGKERELVAAIRWSSGRTYYADSVKGRFTISRDNAKNTVYLQMNSLKPEDTAVYYCATDYHYSQYYRFYYWGQGTQVTVSS | high polyreactivity
QVHLVESGGGLVQAGGSLLLSCAASGGTFAAYAMGWYRQAPGKERELVAAIDSGGTTKYADSVKGRFTISRDNAKNTVYLQMSCLKPEDTAVYYCAAVYRITFGYHTSRAFDYWGQGTQVTVSS | low polyreactivity
QVHLVESGGGLVQAGGSLRISCAASGNIFPNNGMGWNRQAPGKERELVAAISFNGDDTYADSVKGRFTISRDNAKNTVYLKMNSLNPEDTAVYYCNAVPGADQFSAPVITTAEDYWGQGTQVTVSS | low polyreactivity
QVHLVESGGGLVQAGGSLRISCAASGRTFYIYAMGWYRQAPGKERELVAAISWGSGSTYYADSVKGRFTISRDNAKNTVYLQMNSLKPEDTAVYYCAADYAYPSEWTYDYWGQGTQVTVSS | low polyreactivity
QVHLVESGGGLVQAGGSLRLNCAASGRTFTEYAMGWYTPAPGKERELVAAITTVGSTYYADSVKGRFTISRDNAKNTVDIQMNSQKPEDTAVYYCDVERDYWTKASYYWGQGTQVTVSS | low polyreactivity
QVHLVESGGGLVQAGGSLRLRCAASGFILGAYAMGWYRQAPGKERELDAAISYSGGRTYYADSVKGRFTISRDNAKNTVYLQMNSQNPEDTAVYYCAADWYYGYFFSVAGEHEYCGQGTQVTVSS | high polyreactivity
QVHLVESGGGLVQAGGSLRLSCAASASIFRYYAMGRYRQAPGKERELVATISSGGRTYYADSVKGRFTISRDNAKNTVYLQMNSLKPEDPAVYYCAAVRLTWTAKYNYWGQGTQVTVSS | high polyreactivity
QVHLVESGGGLVQAGGSLRLSCAASGFIFIRYAMGWYRQAPGKERELVAAINGGGSSTYYADSVKGRFTISRDNAKYTVYLQMNSLKPEDTAVDYCDADTDSWWYYLYYGDGFDYWGQGTQVTVSS | high polyreactivity
